Measurements taken from paper PMC10881165.

Biological target: α-synuclein 1-140 (UniProt P37840)
Experiment: membrane pelleting, Western blot of dimers/trimers
Details: reference: WT (unphosphorylated) α-synuclein; sites S129

- other: oligomer/monomer ratio: stronger; reference 0.22 ± 0.07
Substance: α-synuclein 1-140 (from UniProt P37840) pS129 α-synuclein
